Data as given in patent US20170174769A1 (Regeneron, published 2017).
Positions count from the first letter of the chain named. Names and notes keep the numbering of the source. One block for each binder: values may come before it.

Key:
[1] = molecular target: T1, extracellular domain of human FGFR1c expressed with C-terminal V5 and hexahistidine tags (human, UniProt P11362 22-376); test: SPR, mAb captured, 25 C
T1 construct: also called hFGFR1c-V5-6His
T1 sequence: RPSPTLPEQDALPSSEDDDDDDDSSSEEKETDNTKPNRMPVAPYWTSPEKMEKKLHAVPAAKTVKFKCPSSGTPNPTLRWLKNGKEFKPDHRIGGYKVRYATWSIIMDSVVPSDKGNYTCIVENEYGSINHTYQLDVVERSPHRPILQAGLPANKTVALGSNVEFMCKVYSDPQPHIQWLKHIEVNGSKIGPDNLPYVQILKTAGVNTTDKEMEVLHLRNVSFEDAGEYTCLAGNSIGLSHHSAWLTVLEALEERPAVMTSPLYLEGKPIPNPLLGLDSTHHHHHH
Method: (§1) Equilibrium dissociation constants (KD values) for human KLB or human FGFR1c binding to purified anti-KLB/FGFR1c monoclonal antibodies were determined using a real-time surface plasmon resonance biosensor using a Biacore T-200 or 4000 instrument. The Biacore sensor surface was derivatized by amine coupling with either a polyclonal rabbit anti-mouse antibody (GE, # BR-1008-38) or with a monoclonal mouse anti-human Fc antibody (GE, # BR-1008-39) to capture anti-KLB/FGFR1c monoclonal antibodies expressed with either a mouse Fc or a human Fc, respectively. All Biacore binding studies were performed in a buffer composed of 0.01M HEPES pH 7.4, 0.15M NaCl, 3mM EDTA, 0.05% v/v Surfactant P20 (HBST running buffer). […] Association of hKLB-HA-6His or hFGFR1c-V5-6His to the captured monoclonal antibody was monitored for 3.5 to 4 minutes and the dissociation of hKLB-HA-6His or hFGFR1c-V5-6His in HBST running buffer was monitored for 8-12 minutes. All the binding kinetics experiments were performed at 25° C. or 37° C. Kinetic association (kₐ) and dissociation (kd) rate constants were determined by fitting the real-time sensorgrams to a 1:1 binding model using Scrubber 2.0c curve fitting software. Binding dissociation equilibrium constants (KD) and dissociative half-lives (t½) were calculated from the kinetic rate constants as: […]

[2] = molecular target: T2, extracellular domain of human KLB expressed with C-terminal HA and hexahistidine tags (human, UniProt Q86Z14 1-996); test: SPR, mAb captured, 25 C
T2 construct: also called hKLB-HA-6His; hKLB-HA-6his
T2 sequence: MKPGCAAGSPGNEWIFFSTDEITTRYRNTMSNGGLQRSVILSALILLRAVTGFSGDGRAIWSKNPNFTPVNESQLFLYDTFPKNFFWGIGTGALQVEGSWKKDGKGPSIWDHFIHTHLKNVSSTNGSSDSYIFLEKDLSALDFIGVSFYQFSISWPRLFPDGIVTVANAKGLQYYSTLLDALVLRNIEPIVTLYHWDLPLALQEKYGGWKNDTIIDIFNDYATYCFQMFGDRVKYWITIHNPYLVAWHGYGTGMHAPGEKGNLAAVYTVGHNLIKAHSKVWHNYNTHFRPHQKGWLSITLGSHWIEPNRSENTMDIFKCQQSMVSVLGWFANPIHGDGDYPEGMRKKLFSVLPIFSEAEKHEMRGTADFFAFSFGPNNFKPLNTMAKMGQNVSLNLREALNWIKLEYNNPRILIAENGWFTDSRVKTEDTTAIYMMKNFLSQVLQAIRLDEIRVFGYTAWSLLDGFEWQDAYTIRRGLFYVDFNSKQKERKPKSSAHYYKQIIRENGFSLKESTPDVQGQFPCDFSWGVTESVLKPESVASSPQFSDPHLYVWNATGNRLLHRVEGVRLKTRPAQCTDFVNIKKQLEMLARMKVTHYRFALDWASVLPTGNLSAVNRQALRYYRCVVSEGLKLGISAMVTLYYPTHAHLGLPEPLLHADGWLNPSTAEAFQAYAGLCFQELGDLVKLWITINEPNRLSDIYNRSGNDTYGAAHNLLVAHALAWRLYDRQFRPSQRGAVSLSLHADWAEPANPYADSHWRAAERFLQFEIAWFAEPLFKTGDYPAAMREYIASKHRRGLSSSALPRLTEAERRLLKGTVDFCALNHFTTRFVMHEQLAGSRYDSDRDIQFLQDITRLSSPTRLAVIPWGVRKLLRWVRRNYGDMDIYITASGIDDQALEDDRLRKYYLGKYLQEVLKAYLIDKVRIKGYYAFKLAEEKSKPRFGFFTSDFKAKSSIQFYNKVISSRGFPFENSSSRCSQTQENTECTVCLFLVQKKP
Method: as §1

B1: H4H8859P (antibody, V domains shown)
VH: EVQLVESGGSVVRPGGSLRLSCAASGFTFDVYGMSWVRQAPGKGLEWVSGINWIGGSTGYADSVKGRFTISRDNAKNSLYLQMNSLRAEDTALYYCTREEDYWGQGTLVTVSS
VL: DVVMTQSPLSLAVTLGQPASISCRSSQSLVYSDGNTYLNWFQQRPGQSPRRLFYKVSNRDSGVPDRFSGSGSGTDFTLKISRVEAEDVGIYYCMQGIKWPLTFGGGTKVEIK
notes: human IgG4 Fc (H4H prefix)
180 nM hFGFR1c-V5-6His Bind (RU) [1]: 4.9 RU | Kd [1]: 352 nM | koff [1]: 0.0536 s⁻¹ | kon [1]: 152000 M⁻¹ s⁻¹ | t1/2 [1]: 13.2 s | 20 nM hKLB-HA-6His Bind (RU) [2]: -0.8 RU

B4: H1H8897P (antibody, V domains shown)
VH: QVQLVESGGGLVKPGGSLRLSCAAAGFTFSDYYMSWIRQAPGQGLEWVSYISPSGSTTYYADSVQGRFTISRDNAKSSLYLQMNSLRAEDTAVYYCARTGIQLWSVYFDYWGQGTLVTVSS
VL: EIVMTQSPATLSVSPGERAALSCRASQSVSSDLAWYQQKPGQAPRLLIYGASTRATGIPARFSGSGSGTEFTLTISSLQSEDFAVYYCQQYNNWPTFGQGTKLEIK
notes: H1H Fc prefix (human Fc)
180 nM hFGFR1c-V5-6His Bind (RU) [1]: 0.9 RU | binding result [1]: no binding (tested: 180 nM) | 20 nM hKLB-HA-6His Bind (RU) [2]: -0.4 RU

B5: H1H8898P (antibody, V domains shown)
VH: B4 VH with A25S, T28I, Q43K, E46D, V48I, T58I, Q65K, S77N, E89D
VL: EIVMTQSPATLSVSPGERATLSCRASQSVGSNLAWYQQKPGQAPRLLIYGASTRANGIPARFSGSGSGTEFTLTISGLQSEDFAVYYCQQYNNWPTFGQGTKLEIK
notes: H1H Fc prefix (human Fc)
180 nM hFGFR1c-V5-6His Bind (RU) [1]: 2.9 RU | binding result [1]: no binding (tested: 180 nM) | 20 nM hKLB-HA-6His Bind (RU) [2]: -0.2 RU

B7: H1H8899P (antibody, V domains shown)
VH: EVQLVESGGGLVQPGGSLRLSCAASGFTFSSHWMSWVRQAPGKGLEWVANIKQDGSEKYYVDSVKGRFTISRDNAKNSLYLQISSLRAEDTAVYYCASNWNFLFDFWGQGTLVTVSS
VL: not shown
180 nM hFGFR1c-V5-6His Bind (RU) [1]: 2.4 RU | binding result [1]: no binding (tested: 180 nM) | 20 nM hKLB-HA-6His Bind (RU) [2]: 0.5 RU

Results, then the binder that gave them:

180 nM hFGFR1c-V5-6His Bind (RU) [1]: 6.9 RU | Kd [1]: 197 nM | koff [1]: 0.0432 s⁻¹ | kon [1]: 219000 M⁻¹ s⁻¹ | t1/2 [1]: 16.2 s | 20 nM hKLB-HA-6His Bind (RU) [2]: -0.6 RU
B2: H4H8870P (antibody, V domains shown)
VH: B1 VH with S10G, T28K, A40L, N52S, I54T, T58S, A75G, N77K
VL: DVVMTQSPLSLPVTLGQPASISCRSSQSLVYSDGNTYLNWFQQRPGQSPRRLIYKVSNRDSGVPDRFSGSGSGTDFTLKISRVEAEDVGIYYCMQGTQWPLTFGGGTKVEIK
notes: human IgG4 Fc (H4H prefix)

180 nM hFGFR1c-V5-6His Bind (RU) [1]: 1.3 RU | binding result [1]: no binding (tested: 180 nM) | 20 nM hKLB-HA-6His Bind (RU) [2]: 0.3 RU | binding result [2]: no binding (tested: 60 nM)
B3: H1H8900P (antibody, V domains shown)
VH: QVQLVESGGGVVQPGRSLRLSCVASGFTFSSYGMHWVRQAPGKGLEWVAVISFDGSNKYYADSVKGRFTISRDNSKNTLYLQMNSLRPADTAVYYCAKDRSNYYYFGMDVWGQGTTVTVSS
VL: DIVMTQTPLSLPVTPGEPASISCRSSQSLLDSDDGNTYLDWYLQKPGQSPQLLIYTLSYRASGVPDRFSGSGSGTDFTLKISRVEAEDVGVYYCMQRIEFPLTFGGGTKVEIK
notes: H1H Fc prefix (human Fc)

180 nM hFGFR1c-V5-6His Bind (RU) [1]: -0.9 RU | 20 nM hKLB-HA-6His Bind (RU) [2]: 2.7 RU
B6: H2aM8098N (antibody, V domains shown)
VH: QLQLQESGPGLVKPSETLSLTCTVSGGSISSSNYYWDWIRQTPEKGLEWIGSIHYSGTSYYNPSLKSRVTISVDTSKNQFSLKLRSVTAADAAVYYCARQTSVYWYFDIWGHGTLVTVST
VL: EIVLTQSPGTLSLSPGEGATLSCRASQSVRNNYLAWYQQKPGQAPRLLIYGASSRAIGIPDRFSGSGSGTDFTLTISRLEPKDFVVYYCQQYGGSLFTFGPGTKVDIK
notes: mouse IgG2 Fc (H2aM prefix)
